Publication PMC10279719 (Nature Communications, 2023)

How the values were obtained:
Details in all cases: both partners purified
[1] = biological target: T1, PEAK1^IDR1 (residues 1082-1746), from insect cells (human, UniProt Q9H792 1082-1746, biotin (EZ-Link NHS-PEG4-Biotin, 1:1 molar ratio)); experiment: SPR; biotinylated PEAK proteins (with or without Src phosphorylation) captured with a biotin CAPture kit, CrkII NSH3 as analyte; Biacore 8K+, 20 °C, HBS-TP (150 mM NaCl); 1 M NaCl regeneration; steady state
T1 construct: human PEAK1, UniProt Q9H792, residues 1082-1746; Purifies as a homodimer; Phosphorylation at the tandem 14-3-3 motif was not observed
T1 sequence (looked up): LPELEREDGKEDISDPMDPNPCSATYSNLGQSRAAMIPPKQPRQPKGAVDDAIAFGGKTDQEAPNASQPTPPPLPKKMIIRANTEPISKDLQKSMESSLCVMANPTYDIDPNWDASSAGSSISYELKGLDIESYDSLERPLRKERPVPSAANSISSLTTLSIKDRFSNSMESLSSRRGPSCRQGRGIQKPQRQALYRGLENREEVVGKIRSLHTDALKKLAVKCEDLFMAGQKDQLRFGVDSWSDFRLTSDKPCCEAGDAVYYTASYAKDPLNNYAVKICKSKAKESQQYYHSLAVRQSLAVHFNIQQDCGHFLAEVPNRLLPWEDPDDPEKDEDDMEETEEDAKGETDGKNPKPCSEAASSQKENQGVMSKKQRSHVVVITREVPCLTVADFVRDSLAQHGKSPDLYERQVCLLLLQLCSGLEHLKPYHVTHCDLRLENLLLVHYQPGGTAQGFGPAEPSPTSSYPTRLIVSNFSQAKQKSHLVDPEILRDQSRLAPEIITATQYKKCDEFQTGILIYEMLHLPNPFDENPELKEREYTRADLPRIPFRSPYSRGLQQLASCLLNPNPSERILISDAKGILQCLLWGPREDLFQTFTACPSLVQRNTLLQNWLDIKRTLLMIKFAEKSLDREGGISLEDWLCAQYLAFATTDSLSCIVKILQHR

[2] = biological target: T2, PEAK1^IDR1 (residues 1082-1746), from insect cells, phosphorylated by Src (human, UniProt Q9H792 1082-1746, phosphotyrosine at Y1107 (by Src in vitro, shown by MS/MS); other Src sites not stated; biotin (EZ-Link NHS-PEG4-Biotin, 1:1 molar ratio)); experiment: as above
T2 construct: human PEAK1, UniProt Q9H792, residues 1082-1746; also called PEAK1-IDR1 (+ Src phosphorylation); source: Sf21 insect cells, purified; phosphorylated in vitro with recombinant Src kinase domain
T2 sequence (looked up): T1 sequence (looked up)

[3] = biological target: T3, full length PEAK3 (PEAK3^FL, residues 1-473), from insect cells (human, UniProt Q6ZS72 1-473, phosphoserine at S69; biotin (EZ-Link NHS-PEG4-Biotin, 1:1 molar ratio)); experiment: as above
T3 construct: Immobilised as the complex with insect cell 14-3-3ε,ζ
T3 sequence (looked up): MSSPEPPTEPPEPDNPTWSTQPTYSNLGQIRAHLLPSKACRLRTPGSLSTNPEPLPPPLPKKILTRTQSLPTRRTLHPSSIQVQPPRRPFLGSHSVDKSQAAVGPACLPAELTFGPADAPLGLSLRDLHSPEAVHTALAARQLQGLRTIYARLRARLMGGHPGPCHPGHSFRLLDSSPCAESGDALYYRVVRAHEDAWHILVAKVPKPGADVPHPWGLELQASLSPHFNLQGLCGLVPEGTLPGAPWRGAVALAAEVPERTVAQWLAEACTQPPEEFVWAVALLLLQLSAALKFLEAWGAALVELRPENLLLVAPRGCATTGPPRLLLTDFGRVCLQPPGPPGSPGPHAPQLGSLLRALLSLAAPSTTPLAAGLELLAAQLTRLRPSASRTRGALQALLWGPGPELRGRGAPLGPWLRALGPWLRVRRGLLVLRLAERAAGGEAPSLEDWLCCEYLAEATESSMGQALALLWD

[4] = biological target: T4, full length PEAK3 (PEAK3^FL, residues 1-473), from insect cells, phosphorylated by Src (human, UniProt Q6ZS72 1-473, phosphoserine at S69; phosphotyrosine at Y24 (by Src in vitro, shown by MS/MS); other Src sites not stated; biotin (EZ-Link NHS-PEG4-Biotin, 1:1 molar ratio)); experiment: as above
T4 construct: As Sm27, with Src phosphorylation before immobilisation; also called PEAK3-FL (+ Src phosphorylation); source: Sf21 insect cells, purified as a complex with insect 14-3-3ε,ζ; phosphorylated in vitro with recombinant Src kinase domain
T4 sequence (looked up): T3 sequence (looked up)

[5] = biological target: T5, PEAK3 tandem peptide, non-phosphorylated (residues 54-74) (human, N-terminal acetyl; C-terminal amide); experiment: ITC; second of two sequential titrations ('ternary'); CrkII NSH3 (400 µM) in the syringe titrated into the non-phosphorylated PEAK3 tandem peptide (16.8 µM) with the 14-3-3γ of the first titration, which did not bind, still in the cell; 25 °C, 20 mM HEPES pH 7.4, 150 mM NaCl, 1 mM TCEP
T5 construct: source: synthetic peptide, bought: Mimotopes (95% purity)
T5 peptide: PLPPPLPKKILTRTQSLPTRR

- Kd [1]: 3.7 µM
- Kd [2]: 4.11 µM
- Kd [3]: 3.87 µM
- Kd [4]: 6.84 µM
- stoichiometry N [5]: 0.654
B1: CrkII N-terminal SH3 domain (CrkII^NSH3, residues 134-191) (domain or fragment, human, UniProt P46108-1 134-191, looked up)
chain: AEYVRALFDFNGNDEEDLPFKKGDILRIRDKPEEQWWNAEDSEGKRGMIPVPYVEKYR
notes: human CrkII NSH3 domain, UniProt P46108-1, residues 134-191; Amine coupled to a CM5 chip in a2; analyte in a4; in the syringe in ITC
